Data as given in IntAct's records for PubMed 27458164.

B1: Src-like-adapter 2 (Mus musculus), Q8R4L0 (parent)
chain: MGSLSSRGKTSSPSPSSSGPDQEPVSMQPERHKVTAVALGSFPAGEQARLSLRLGEPLTIISEDGDWWTVQSEVSGREYHMPSVYVAKVAHGWLYEGLSREKAEELLLLPGNPGGAFLIRESQTRRGCYSLSVRLSRPASWDRIRHYRIQRLDNGWLYISPRLTFPSLHALVEHYSELADGICCPLREPCVLQKLGPLPGKDTPPPVTVPTSSLNWKKLDRSLLFLEAPASGEASLLSEGLRESLSSYISLAEDPLDDA

Variants of: B1
Details: with flt3_human FLT3, P36888
flt3_human FLT3, P36888, sequence (P36888 whole entry): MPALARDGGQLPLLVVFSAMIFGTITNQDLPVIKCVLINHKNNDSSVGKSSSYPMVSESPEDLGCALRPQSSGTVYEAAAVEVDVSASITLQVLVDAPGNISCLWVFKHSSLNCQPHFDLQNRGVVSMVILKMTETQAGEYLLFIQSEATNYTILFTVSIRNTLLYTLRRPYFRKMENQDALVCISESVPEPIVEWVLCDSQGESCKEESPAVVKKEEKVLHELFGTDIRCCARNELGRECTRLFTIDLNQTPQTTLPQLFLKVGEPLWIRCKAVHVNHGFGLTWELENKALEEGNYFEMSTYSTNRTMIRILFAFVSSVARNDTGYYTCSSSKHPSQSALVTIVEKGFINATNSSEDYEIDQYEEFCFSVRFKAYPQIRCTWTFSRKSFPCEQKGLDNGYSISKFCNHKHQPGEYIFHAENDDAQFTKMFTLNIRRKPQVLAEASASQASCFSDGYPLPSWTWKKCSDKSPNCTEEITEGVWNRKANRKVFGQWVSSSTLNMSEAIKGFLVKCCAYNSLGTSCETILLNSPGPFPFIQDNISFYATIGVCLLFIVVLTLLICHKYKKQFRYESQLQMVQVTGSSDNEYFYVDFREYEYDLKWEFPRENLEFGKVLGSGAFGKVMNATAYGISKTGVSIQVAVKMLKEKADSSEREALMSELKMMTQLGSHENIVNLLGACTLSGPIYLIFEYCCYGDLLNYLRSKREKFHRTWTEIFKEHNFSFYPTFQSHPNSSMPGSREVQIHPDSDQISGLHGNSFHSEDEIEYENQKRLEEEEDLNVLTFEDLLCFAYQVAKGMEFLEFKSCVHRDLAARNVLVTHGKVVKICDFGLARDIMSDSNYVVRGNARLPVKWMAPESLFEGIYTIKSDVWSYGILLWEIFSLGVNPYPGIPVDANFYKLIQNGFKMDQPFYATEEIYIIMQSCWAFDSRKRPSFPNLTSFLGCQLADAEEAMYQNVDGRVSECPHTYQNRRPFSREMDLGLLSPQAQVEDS

Variant	effect of a mutation on the interaction
MGSLSSRGKTSSPSPSSSGPDQEPVSMQPERHKVTAVALGSFPAGEQARLSLRLGEPLTIISEDGDWWTVQSEVSGREYHMPSVYVAKVAHGWLYEGLSREKAEELLLLPGNPGGAFLIEESQTRRGCYSLSVRLSRPASWDRIRHYRIQRLDNGWLYISPRLTFPSLHALVEHYSELADGICCPLREPCVLQKLGPLPGKDTPPPVTVPTSSLNWKKLDRSLLFLEAPASGEASLLSEGLRESLSSYISLAEDPLDDA [R120E]	disrupting interaction
